Molecular target: human transient receptor potential vanilloid 1 (TRPV1) (human) (UniProt Q8NER1)
Sequence (Q8NER1 whole entry): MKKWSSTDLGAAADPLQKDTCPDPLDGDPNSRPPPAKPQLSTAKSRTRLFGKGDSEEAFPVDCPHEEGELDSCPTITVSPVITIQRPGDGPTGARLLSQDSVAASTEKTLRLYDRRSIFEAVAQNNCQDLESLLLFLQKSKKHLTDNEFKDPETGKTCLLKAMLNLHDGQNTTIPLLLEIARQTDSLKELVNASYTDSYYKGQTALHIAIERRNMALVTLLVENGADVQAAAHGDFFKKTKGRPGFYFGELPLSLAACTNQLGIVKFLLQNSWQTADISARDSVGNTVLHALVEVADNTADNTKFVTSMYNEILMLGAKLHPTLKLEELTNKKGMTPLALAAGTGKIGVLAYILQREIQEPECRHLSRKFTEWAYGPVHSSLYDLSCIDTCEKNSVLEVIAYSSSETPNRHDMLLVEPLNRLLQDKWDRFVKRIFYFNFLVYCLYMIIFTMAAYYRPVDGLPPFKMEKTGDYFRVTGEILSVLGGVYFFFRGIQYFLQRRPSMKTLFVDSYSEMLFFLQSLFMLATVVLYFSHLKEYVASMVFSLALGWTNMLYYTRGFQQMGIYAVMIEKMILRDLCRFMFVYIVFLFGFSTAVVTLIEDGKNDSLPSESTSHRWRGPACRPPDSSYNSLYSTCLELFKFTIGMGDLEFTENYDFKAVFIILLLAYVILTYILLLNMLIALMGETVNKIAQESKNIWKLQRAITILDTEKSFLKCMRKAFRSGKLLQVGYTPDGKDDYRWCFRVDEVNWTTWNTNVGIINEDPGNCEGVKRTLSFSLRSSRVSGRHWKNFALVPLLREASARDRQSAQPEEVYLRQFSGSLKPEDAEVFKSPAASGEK

For “exendin-4 (from UniProt P26349 48-87) (peptide)”, the IC50 of inhibition of the CAP (100 nM)-induced calcium response in CHO K1 cells expressing human TRPV1 was 62.2 nM.
